Key:
[1] = target: T1, rhNR10 (recombinant human NR10) (human, UniProt Q8NI17 20-519, limits assumed); assay: SPR, Biacore T100; antibody captured on Protein A, rhNR10 as analyte
T1 construct: also called IL-31 receptor; IL31RA
T1 sequence: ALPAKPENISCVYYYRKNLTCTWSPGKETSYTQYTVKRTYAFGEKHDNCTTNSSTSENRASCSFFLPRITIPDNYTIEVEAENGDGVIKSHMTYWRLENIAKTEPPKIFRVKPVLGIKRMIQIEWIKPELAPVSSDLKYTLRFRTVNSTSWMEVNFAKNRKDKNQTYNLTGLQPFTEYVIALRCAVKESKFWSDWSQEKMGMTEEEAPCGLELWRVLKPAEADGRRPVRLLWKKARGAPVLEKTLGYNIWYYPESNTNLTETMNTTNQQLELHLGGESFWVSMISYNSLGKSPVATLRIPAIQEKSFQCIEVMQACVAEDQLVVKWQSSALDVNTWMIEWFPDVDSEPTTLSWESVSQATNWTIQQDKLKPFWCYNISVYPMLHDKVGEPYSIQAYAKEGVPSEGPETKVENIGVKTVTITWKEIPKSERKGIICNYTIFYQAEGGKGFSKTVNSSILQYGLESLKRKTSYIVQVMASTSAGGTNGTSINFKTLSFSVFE
Method: Kinetic analysis of the antigen-antibody reaction was carried out using Biacore T100 (GE Healthcare Biosciences). The antigen-antibody interaction was measured by immobilizing rec-Protein A (hereinafter Protein A) (ZYMED) onto a sensor chip, capturing an antibody on the immobilized Protein A, and then reacting the antigen as an analyte. Various concentrations of rhNR10 were used as the antigen. The kinetic parameters, association rate constant kₐ (1/Ms) and dissociation rate constant kd (1/s), were calculated from the sensorgrams obtained by the measurement. Then, KD (M) was determined based on the rate constants. Each parameter was determined using Biacore T100 Evaluation Software version 1.1 (GE Healthcare Biosciences).
The running buffer used was HBS-EP+. Each antibody was prepared at 0.25 μg/ml, or prepared so that about 100 RU would bind to Protein A. rhNR10 used as an analyte was prepared at 0, 38.5, 77.0, and 154 nM, or at 0, 19.25, and 77.01 nM using HBS-EP+. In the measurement, first, the antibody solution was captured on Protein A, and an analyte solution was reacted at a flow rate of 20 μL/min for three minutes. Then, the solution was switched to HBS-EP+, and the dissociation phase was measured for five minutes. After measurement of the dissociation phase, the sensor chip was regenerated by washing with 10 mM glycine-HCl (pH 1.5). The obtained sensorgrams were kinetically analyzed using the Biacore-specific data analysis software, Biacore T100 Evaluation Software Version 1.1.

[2] = target: T2, mmh (human/mouse chimeric NR10 extracellular domain, His/Myc tagged) (human/mouse chimera); assay: Western blotting, 0.5 µg antigen per lane
T2 construct: C-terminal His-Myc tag
T2 chain: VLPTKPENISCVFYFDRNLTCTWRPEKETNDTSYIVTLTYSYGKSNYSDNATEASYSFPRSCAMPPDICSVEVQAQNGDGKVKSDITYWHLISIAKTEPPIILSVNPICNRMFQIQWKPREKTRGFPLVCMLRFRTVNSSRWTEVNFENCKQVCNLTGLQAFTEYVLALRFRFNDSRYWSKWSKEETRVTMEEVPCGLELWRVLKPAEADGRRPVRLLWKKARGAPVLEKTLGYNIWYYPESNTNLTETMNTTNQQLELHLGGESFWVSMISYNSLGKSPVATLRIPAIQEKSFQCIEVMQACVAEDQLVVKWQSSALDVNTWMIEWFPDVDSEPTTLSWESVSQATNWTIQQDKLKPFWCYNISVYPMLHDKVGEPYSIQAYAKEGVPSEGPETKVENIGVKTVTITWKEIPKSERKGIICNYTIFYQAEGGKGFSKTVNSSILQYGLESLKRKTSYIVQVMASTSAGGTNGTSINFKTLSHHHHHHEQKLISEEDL
Method: (§1) Each of the prepared human/mouse wild-type and chimeric antigens was electrophoresed at 0.5 μg/lane on three 4-20% polyacrylamide gels (Daiichi Pure Chemicals Co.). The proteins were electro-transferred onto PVDF membranes (Millipore) in a semi-dry blotting apparatus, and the membranes were blocked with TBS containing 5% skim milk. One membrane was incubated with 5 μg/ml of H44M58L17 (detection system for humanized anti-human NR10 antibody); another with 5 μg/ml of ND41 (detection system for mouse anti-human NR10 antibody); and the other one with anti-Myc antibody (SantaCruz, Cat.#sc-789) 500-times diluted with TBS containing 5% skim milk (detection system for Myc tag) at room temperature for one hour.
(§2) After washing three times with TBS containing 0.05% Tween™ 20, the secondary antibodies were incubated with the membranes. Alkaline phosphatase-labeled goat anti-human IgGγ (BIOSOURCE, Cat. #AHI0305) was used to detect humanized anti-human NR10 antibody; alkaline phosphatase-labeled goat anti-mouse IgG (SantaCruz, Cat. #sc-2008) was used to detect mouse anti-human NR10 antibody; and alkaline phosphatase-labeled goat anti-rabbit IgG (SantaCruz, Cat. #sc-2057) was used to detect Myc tag. The reaction was carried out at room temperature for one hour. […]

[3] = target: T3, mhh (human/mouse chimeric NR10 extracellular domain, His/Myc tagged) (human/mouse chimera); assay: Western blot of purified His/Myc-tagged NR10-ECD probed with H44M58L17, detected with AP-labeled goat anti-human IgG
T3 construct: C-terminal His-Myc tag
T3 chain: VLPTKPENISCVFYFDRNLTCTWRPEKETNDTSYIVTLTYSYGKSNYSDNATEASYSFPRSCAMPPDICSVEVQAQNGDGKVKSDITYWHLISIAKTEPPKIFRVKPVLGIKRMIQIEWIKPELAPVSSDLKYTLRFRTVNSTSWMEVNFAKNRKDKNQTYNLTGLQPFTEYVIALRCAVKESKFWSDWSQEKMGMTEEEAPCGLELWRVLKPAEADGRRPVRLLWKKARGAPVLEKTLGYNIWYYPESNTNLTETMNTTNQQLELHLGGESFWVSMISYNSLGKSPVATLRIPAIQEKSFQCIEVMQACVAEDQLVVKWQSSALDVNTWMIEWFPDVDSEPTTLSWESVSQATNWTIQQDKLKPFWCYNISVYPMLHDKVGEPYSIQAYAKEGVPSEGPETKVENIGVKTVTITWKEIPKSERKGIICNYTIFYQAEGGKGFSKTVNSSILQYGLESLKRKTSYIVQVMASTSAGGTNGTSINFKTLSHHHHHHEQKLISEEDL
Method: as §1, §2

B1: H44L17 (H44-M58 / L17) (antibody, V domains shown)
VH: QVQLVQSGAEVKKPGASVKVSCKASGYTFTGYIMNWVRQAPGQGLEWMGLINPYNGGTDYNPQFQDRVTITADKSTSTAYMELSSLRSEDTAVYYCARDGYDDGPYTLETWGQGTLVTVSS
VL: DIQMTQSPSSLSASVGDRVTITCQASEDIYSFVAWYQQKPGKAPKLLIYNAQTEAQGVPSRFSGSGSGTDFTLTISSLQPEDFATYYCQHHYDSPLTFGGGTKVEIKR
notes: also called humanized anti-human NR10 antibody
Which Kd [1] does the source give for B1 here?
Its Kd is 1.2 nM.

What about the koff [1] of the same binder?
The koff was 0.00072 s⁻¹.

What about the kon [1] of the same binder?
The kon was 610000 M⁻¹ s⁻¹.

Does B1 bind [2]?
Result: no binding (tested: 5 µg/ml)

Does B1 bind [3]?
Result: no binding

Source: patent US20110129459A1 (Chugai, published 2011)
